In patent US20180339057A1 (Novo Nordisk, published 2018):

T1: human MIC-1 receptor (hGFRAL, GDNF family receptor alpha like), full length (human, UniProt Q6UXV0 19-394)
T1 sequence (looked up): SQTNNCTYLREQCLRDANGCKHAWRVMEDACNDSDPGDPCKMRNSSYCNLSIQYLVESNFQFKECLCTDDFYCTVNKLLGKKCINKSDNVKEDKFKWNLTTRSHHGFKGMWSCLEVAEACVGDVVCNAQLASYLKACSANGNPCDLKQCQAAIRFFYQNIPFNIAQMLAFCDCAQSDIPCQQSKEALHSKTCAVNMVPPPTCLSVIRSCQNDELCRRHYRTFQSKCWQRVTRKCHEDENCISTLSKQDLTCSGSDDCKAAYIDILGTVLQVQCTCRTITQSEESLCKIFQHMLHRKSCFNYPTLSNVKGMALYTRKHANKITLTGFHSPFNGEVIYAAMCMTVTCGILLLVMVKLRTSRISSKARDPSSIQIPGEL

B1: SEPATSGSETPGTSESATPESGPGTSTEPCEG-MIC-1, des-N3, M57L, M86L (Cys mutation S(-3)C) (ligand)
chain: SEPATSGSETPGTSESATPESGPGTSTEPCEGARGDHCPLGPGRCCRLHTVRASLEDLGWADWVLSPREVQVTMCIGACPSQFRAANLHAQIKTSLHRLKPDTVPAPCCVPASYNPLVLIQKTDTGVSLQTYDDLLAKDCHCI
notes: homodimer; no protractor
B2: Compound 15 (ligand)
chain 1: SEPATSGSETPGTSESATPESGPGTSTEPSEGARGDHCPLGPGRCCRLHTVRASLEDLGWADWVLSPREVQVTMCIGACPSQFRAANLHAQIKTSLHRLRPDTVPAPCCVPASYNPLVLIQRTDTGVSLQTYDDLLARDCHCI
chain 2: SEPATSGSETPGTSESATPESGPGTSTEPSEGARGDHCPLGPGRCCRLHTVRASLEDLGWADWVLSPREVQVTMCIGACPSQFRAANLHAQIKTSLHRLRPDTVPAPCCVPASYNPLVLIQRTDTGVSLQTYDDLLARDCHCI
modifications: alpha-amino group of the N-terminal Ser-32 (residue 1 of SEQ ID NO: 312): N-[4-[[[2-[2-[2-[[2-[2-[2-[[(4S)-4-carboxy-4-(17-carboxyheptadecanoylamino)butanoyl]amino]ethoxy]ethoxy]acetyl]amino]ethoxy]ethoxy]acetyl]amino]methyl]phenyl]methyl (protractor of Example 10.1)
notes: also called monoalkylated
B3: Compound 10 (ligand)
chain: SEPATSGSETPGTSESATPESGPGTSTEPSEGARGDHCPLGPGRCCRLHTVRASLEDLGWADWVLSPREVQVTMCIGACPSQFRAANLHAQIKTSLHRLKPDTVPAPCCVPASYNPLVLIQKTDTGVSLQTYDDLLAKDCHCI
modifications: alpha-amino group of the N-terminal Ser-32 (residue 1 of SEQ ID NO: 164): N-[4-[[[2-[2-[2-[[2-[2-[2-[[(4S)-4-carboxy-4-(17-carboxyheptadecanoylamino)butanoyl]amino]ethoxy]ethoxy]acetyl]amino]ethoxy]ethoxy]acetyl]amino]methyl]phenyl]methyl (protractor of Example 10.1)
notes: homodimer with one protractor on each of the two N-terminal extensions; also called Formula A (C18)
B4: SEPCTSGSETPGTSESATPESGPGTSTEPSEG-MIC-1, des-N3, M57L, M86L (Cys mutation A(-29)C) (ligand)
chain: SEPCTSGSETPGTSESATPESGPGTSTEPSEGARGDHCPLGPGRCCRLHTVRASLEDLGWADWVLSPREVQVTMCIGACPSQFRAANLHAQIKTSLHRLKPDTVPAPCCVPASYNPLVLIQKTDTGVSLQTYDDLLAKDCHCI
notes: homodimer; no protractor
B5: SEPATSGSETPGTSESATPESGPGTSTEPSEG-MIC-1, del-N3, M57L, M86L, K69R, K107R, K91R (ligand)
chain: SEPATSGSETPGTSESATPESGPGTSTEPSEGARGDHCPLGPGRCCRLHTVRASLEDLGWADWVLSPREVQVTMCIGACPSQFRAANLHAQIKTSLHRLRPDTVPAPCCVPASYNPLVLIQRTDTGVSLQTYDDLLARDCHCI
notes: homodimer; no protractor
B6: SEPCTSGSETPGTSESATPESGPGTSTEPSEG-MIC-1, des-N3 (Cys mutation A(-29)C) (ligand)
chain: SEPCTSGSETPGTSESATPESGPGTSTEPSEGARGDHCPLGPGRCCRLHTVRASLEDLGWADWVLSPREVQVTMCIGACPSQFRAANMHAQIKTSLHRLKPDTVPAPCCVPASYNPMVLIQKTDTGVSLQTYDDLLAKDCHCI
notes: homodimer; no protractor
B7: Macrophage Inhibitory Cytokine-1 (MIC-1), human wild type, monomer sequence SEQ ID NO:1 (ligand)
chain: ARNGDHCPLGPGRCCRLHTVRASLEDLGWADWVLSPREVQVTMCIGACPSQFRAANMHAQIKTSLHRLKPDTVPAPCCVPASYNPMVLIQKTDTGVSLQTYDDLLAKDCHCI
notes: covalently linked homodimer; 112 amino acid monomer = residues 197-308 of the precursor; also called wtMIC-1

Tests used:
[1] = molecular target: T1, human MIC-1 receptor (hGFRAL, GDNF …); test: cell-based or functional assay
[2] = molecular target: T1, human MIC-1 receptor (hGFRAL, GDNF …); test: SPA: displacement of 50 pM human [125I]-MIC-1 from BHK21-hGFRAL-IRES-hRET cell membranes
Description: Binding potencies of MIC-1 compounds were calculated by IC50 of displacement curves.
BHK21-hGFRAL-IRES-hRET cells were cultured at +37° C. in a humidified atmosphere with 5% CO₂ in complete medium consisting of DMEM with high glucose and sodium pyrovate, heat inactivated 10% Fetal Bovine Serum, 1% Penicillin-Streptomycin, 1 mg/ml G418-Geneticin and 400 ug/ml Hygromycin. Cells were washed twice in ice cold Dulbecco's phosphate-buffered saline (DPBS) and detached mechanically by scraping, transferred in ice cold DPBS into conical centrifuge tubes and centrifuged for 5 min at 1500 rpm at +20° C. Cell pellet was resuspended in a total amount of 10 ml ice cold homogenization buffer A (50 mM Tris, 2.5 mM EDTA, adjust pH7.4 with one EDTA-free protease inhibitor cocktail tablet/50 ml) and homogenized for 20 seconds. The homogenate was centrifuged at 16000 rpm in 20 minutes at +4° C. The supernatant was discarded and the pellet was reconstituted in 10 ml homogenization buffer B (50 mM Tris, 320 mM Sucrose, adjust pH 7.4 with one EDTA-free protease inhibitor cocktail tablet/50 ml) and homogenized for 20 seconds and centrifuged at 16000 rpm in 20 minutes at +4° C. This procedure was repeated one more time. The supernatant was discarded and the pellet was reconstituted in 3 ml homogenization buffer B and homogenized for 10 seconds at low speed. Protein concentration was determined by standard Bradford method and 1.5 mg protein/tube was aliquoted to cryotubes and stored at −80° C. Binding assays were performed in white 96-well plates in a total volume of 200 μl per well. Wheat germ agglutinin SPA beads were reconstituted in assay buffer (50 mM Tris/HCl, 4.5 mM MgCl₂, 0.02% Tween 20 and 0.25% Ovalbumin pH 7.4) and mixed with membrane preparation to give a final concentration of 0.5 mg SPA beads and 10 μg total protein per well. […] The plate was sealed and incubated at +22° C. for 2 hours in a plate shaker set at 350 rpm and thereafter centrifuged at 1500 rpm for 10 minutes prior to reading of SPA bead light emission.

[3] = molecular target: T1, human MIC-1 receptor (hGFRAL, GDNF …); test: cell-based or functional assay; remark: listed apart in the source

| Binder | Luciferase + 0.1% HSA NNDK EC50 (pM) [1] [pM] | Luciferase NNDK EC50 (pM) [1] [pM] | IC50 [2] [nM] | Emax (%) [3] [%] | pERK EC50 (nM) [3] [nM] |
| --- | --- | --- | --- | --- | --- |
| B1 | 243 | 217 | 83 | – | – |
| B2 | 39 | 61 | 39 | – | – |
| B3 | 146 | 71 | 20 | – | – |
| B4 | 75 | 100 | 80 | – | – |
| B5 | 35 | 42 | 116 | – | – |
| B6 | 47 | 70 | 6.7 | – | – |
| B7 | 36 | 59 | 0.67 | 100 | 0.3 |
